The text below walks through data of article PMC10731240.

The target in assay [1] is Leishmania tarentolae PP1-8e, endogenously HA-tagged. Put plainly: co-IP (anti-protein A affinity resin, Western blot band quantification). The conditions noted are these: parent: 1; read off a plot.
Assay [2] concerns the target LtPP1-8e 354–358A, Pd-tagged (Leishmania tarentolae). Put plainly: co-IP; L. tarentolae cell extract; Pd-tagged PP1 (overexpressed from pSNSAP1) held on IgG Sepharose beads, 4 h at 4 °C, washed three times in PA-150 buffer; endogenously HA-tagged PNUTS detected by anti-HA Western blot; %IP relative to WT PP1-8e. (In western blotting, separated proteins are transferred to a membrane and probed.)

Assay [3] deals with LtPP1-8e CΔ23 (23 amino acid C-terminal extension deleted), Pd-tagged (Leishmania tarentolae). The assay is described as above.
In assay [4] the target is LtPP1-8e with ^260LP^261 mutated to alanine, Pd-tagged (Leishmania tarentolae). The assay is described as above.
Assay [5] deals with LtPP1-8e D290A, Pd-tagged (Leishmania tarentolae). The assay is described as above.
In assay [6] the target is LtPP1-8e F305A, Pd-tagged (Leishmania tarentolae). The assay is described as above.
Assay [7] concerns the target LtPP1-8e 109–134Δ (26 amino acid insertion deleted), Pd-tagged (Leishmania tarentolae). The description is as above.
The target in assay [8] is LtPP1-8e I217A, Pd-tagged (Leishmania tarentolae). Described as above.
Assay [9] addresses LtPP1-8e 109–114A (GGVFG to alanine), Pd-tagged (Leishmania tarentolae). Described as above.
Assay [10] concerns the target LtPP1-8e with ^310DHK^312 mutated to alanine, Pd-tagged (Leishmania tarentolae). The description is as above.
For assay [11], the target named is LtPP1-8e D292A, Pd-tagged (Leishmania tarentolae). Described as above.
In assay [12] the target is LtPP1-8e 263–265A, Pd-tagged (Leishmania tarentolae). The description is as above.
For assay [13], the target named is LtPP1-8e 359 to 362A, Pd-tagged (Leishmania tarentolae). Described as above.
The target of assay [14] is LtPP1-8e I360A, Pd-tagged (Leishmania tarentolae). Described as above.
Assay [15] has as its target LtPP1-8e CΔ11 (final 11 amino acids deleted), Pd-tagged (Leishmania tarentolae). The assay is described as above.
Assay [16] concerns the target Leishmania tarentolae PNUTS, endogenously HA-tagged. Put plainly: co-IP (anti-protein A affinity resin, Western blot band quantification). The conditions noted are these: parent: 1; read off a plot.
The target is the same in assay [17]. The assay can be described thus: co-IP (PP1-8e-Pd pull-down, Western blot band quantification). The conditions noted are these: parent: 1; read off a plot.
Assay [18] deals with LtPNUTS L111A, Pd-tagged (Leishmania tarentolae). The assay can be described thus: co-IP; L. tarentolae cell extract; Pd-tagged PNUTS (overexpressed from pSNSAP1) held on IgG Sepharose beads, 4 h at 4 °C, washed three times in PA-150 buffer; endogenously HA-tagged PP1-8e, JBP3 or Wdr82 detected by anti-HA Western blot; %IP relative to WT PNUTS.
The target of assay [19] is LtPNUTS D101A, Pd-tagged (Leishmania tarentolae). The assay is described as above.
Assay [20] addresses LtPNUTS R94A, Pd-tagged (Leishmania tarentolae). The description is as above.
The target of assay [21] is LtPNUTS V97A, Pd-tagged (Leishmania tarentolae). The description is as above.

As to “Leishmania tarentolae PNUTS, Pd-tagged (WT, full-length) R125A”, the ratio to parent in assay [1] worked out at 0.92.

Regarding “Leishmania tarentolae PNUTS, endogenously HA-tagged (natural protein)”, the percent reduction of co-IP against WT PP1-8e in assay [2] came out at 50%; in assay [5], 50%; in assay [6], 80%; in assay [7] it was 80%; in [8] it was 50%; in assay [9], 80%. Moreover, the percent reduction of co-IP against WT PP1-8e in assay [11] came out at 60%; in [12], 90%; in [13], 80%; in [14], 80%; in [15], 30%. This substance had a percent loss of co-IP against WT PP1-8e in assay [3] of 80%. This substance also had a percent of co-IP lost against WT PP1-8e in assay [4] of 80%. This substance returned a percent decrease of co-IP against WT PP1-8e in assay [10] of 20%.

Consider “Leishmania tarentolae PP1-8e, Pd-tagged (WT) F307A”, for which the ratio to parent in [16] was determined as 0.

On to “Leishmania tarentolae PP1-8e, Pd-tagged (WT) D265A”, for which, in [17], the ratio to parent was 0.51.

Consider “Leishmania tarentolae PP1-8e, Pd-tagged (WT) R314A”, for which the ratio to parent in assay [16] came out at 0.01.

Regarding “Leishmania tarentolae PP1-8e, Pd-tagged (WT) S126A; D129A; D130A; Y133A; S134A”, the ratio to parent in assay [17] amounted to 0.84.

On to “Leishmania tarentolae PNUTS, Pd-tagged (WT, full-length) W99A”, for which, in assay [1], the ratio to parent is 0.08.

Regarding “Leishmania tarentolae PP1-8e, endogenously HA-tagged (enzyme)”, the percent reduction of co-IP against WT PNUTS stood at 80% in assay [18], 80% in assay [19] and 50% in assay [20]. The substance also registered a fold decrease of co-IP against WT PNUTS in [21] of 5 fold.

Consider “Leishmania tarentolae PNUTS, Pd-tagged (WT, full-length) F118A”, for which the ratio to parent in assay [1] worked out at 0.22.

With “Leishmania tarentolae PP1-8e, Pd-tagged (WT) D116A; K118A; K119A; R121A”, the ratio to parent in assay [17] turned out to be 0.79.

Take “Leishmania tarentolae PP1-8e, Pd-tagged (WT) T348A”: the ratio to parent in [16] turned out to be 0.82.

Turning to “Leishmania tarentolae PNUTS, Pd-tagged (WT, full-length) H114A; V115A”, the ratio to parent in assay [1] amounted to 0.17.

Take “Leishmania tarentolae PNUTS, Pd-tagged (WT, full-length) K95A”: the ratio to parent in [1] was 1.

In the case of “Leishmania tarentolae PP1-8e, Pd-tagged (WT) I346A”, the ratio to parent in assay [16] stood at 0.025.

Turning to “Leishmania tarentolae PP1-8e, Pd-tagged (WT) Y96A”, in [16], the ratio to parent was found to be 0.68.
